# Test results taken from patent US20040122214A1 (TRIMERIS, published 2004).
# No end group written: not given here.
# B1: conjugate comprising two molecules of SEQ ID NO:114 operably bound to PEG 6 (other)
# peptide: {PEG‑6 diacid}-LTWQEWDREINNYTSLIYSLIEESQNQQEENEQELL
# modifications: not fully specified; also: dimer: two peptides bound to PEG-6 diacid via N-termini
# Columns and labels:
# [1] = biological target: gp41 of HIV-1 strain sensitive to SEQ ID NO:114 peptide (HIV-1); experiment: cell-based or functional assay
# [2] = biological target: gp41 of HIV-1 strain resistant to SEQ ID NO:114 peptide (HIV-1); experiment: cell-based or functional assay
Binder,"IC50, in vitro infectivity assay [1] [µg/mL]","IC90, in vitro infectivity assay [1] [µg/mL]","IC50, in vitro infectivity assay [2] [µg/mL]","IC90, in vitro infectivity assay [2] [µg/mL]"
"LTWQEWDREINNYTSLIYSLIEESQNQQEENEQELL [peptide comprising SEQ ID NO:114, synthetic peptide alone]",0.005,0.034,2.4,> 20
B1,0.016,0.169,0.15,
